Assay: 6% PFO-PAGE immunoblot
Details: glycan lost; control: wild type

B1: SR-BI (scavenger receptor class B type I; CLA-1): T175A (protein)
parent chain: MGCSAKARWAAGALGVAGLLCAVLGAVMIVMVPSLIKQQVLKNVRIDPSSLSFNMWKEIPIPFYLSVYFFDVMNPSEILKGEKPQVRERGPYVYREFRHKSNITFNNNDTVSFLEYRTFQFQPSKSHGSESDYIVMPNILVLGAAVMMENKPMTLKLIMTLAFTTLGERAFMNRTVGEIMWGYKDPLVNLINKYFPGMFPFKDKFGLFAELNNSDSGLFTVFTGVQNISRIHLVDKWNGLSKVDFWHSDQCNMINGTSGQMWPPFMTPESSLEFYSPEACRSMKLMYKESGVFEGIPTYRFVAPKTLFANGSIYPPNEGFCPCLESGIQNVSTCRFSAPLFLSHPHFLNADPVLAEAVTGLHPNQEAHSLFLDIHPVTGIPMNCSVKLQLSLYMKSVAGIGQTGKIEPVVLPLLWFAESGAMEGETLHTFYTQLVLMPKVMHYAQYVLLALGCVLLLVPVICQIRSQVGAGQRAARADSHSLACWGKGASDRTLWPTAAWSPPPAAVLRLCRSGSGHCWGLRSTLASFACRVATTLPVLEGLGPSLGGGTGS
oligomerisation: no change

Reference: article PMC3448639
